Data set [1] deals with the molecule itself. Description: pull-down.
Data set [2] concerns the molecule itself. Kind of data set: pull-down. This is another data set of the same source.

Where two headings read alike, the source gives them in different places.

B1: cytoplasmic domain of synaptotagmin Ib, D230,232N mutant (domain or fragment, rat, UniProt P21707 96-421, looked up)
chain: GGKNAINMKDVKDLGKTMKDQALKDDDAETGLTDGEEKEEPKEEEKLGKLQYSLDYDFQNNQLLVGIIQAAELPALDMGGTSDPYVKVFLLPDKKKKFETKVHRKTLNPVFNEQFTFKVPYSELGGKTLVMAVYNFNRFSKHDIIGEFKVPMNTVDFGHVTEEWRDLQSAEKEEQEKLGDICFSLRYVPTAGKLTVVILEAKNLKKMDVGGLSDPYVKIHLMQNGKRLKKKKTTIKKNTLNPYYNESFSFEVPFEQIQKVQVVVTVLDYDKIGKNDAIGKVFVGYNSTGAELRHWSDMLANPRRPIAQWHTLQVEEEVDAMLAVKK
On to B1, for which the binding result in the data set “pull-down [1]” was “binds”.

B2: C2B domain of synaptotagmin Ib (residues 248–421) (domain or fragment, rat, UniProt P21707 248-421, looked up)
chain: NTVDFGHVTEEWRDLQSAEKEEQEKLGDICFSLRYVPTAGKLTVVILEAKNLKKMDVGGLSDPYVKIHLMQNGKRLKKKKTTIKKNTLNPYYNESFSFEVPFEQIQKVQVVVTVLDYDKIGKNDAIGKVFVGYNSTGAELRHWSDMLANPRRPIAQWHTLQVEEEVDAMLAVKK
B2: the binding result in the data set “pull-down [2]” is “binds”.

The values above are taken from PMC2175261 (The Journal of Cell Biology, 2000).
